In US20260231968A1, “AN ECO-FRIENDLY, SUSTAINABLE FOOD PRESERVATIVE” (priority 2023, published 2026):

Experiments:
[1] = test system: initial microbial load of plant-based meat substitute; test: Microbial load of plant-based meat substitute during storage; assay type: cell-based
Experimental: The ability of psoriasin to extend the shelf life of a plant-based meat substitute was examined under standard storage conditions. Three groups, each stored as an open package at […], were assessed over the course of 16 days. The groups included i) an untreated control, ii) a nisin-treated sample, and iii) a psoriasin-treated sample at 0.65%. A single source of the plant-based meat substitute was used and each group was reproduced in triplicate. The microbial load of the plant-based meat substitute samples was based on the initial microbial load without the addition of antibiotics and without the addition of mold, yeast or bacteria. Samples from each group were taken on days 1, 3, 5, 10, 11 and 16 and total CFU count was determined by plating on LB and PDA agar petri dishes.

3T3 cells = test: Cell viability assay based on luminescence (cell-titer kit); conditions: 2-74 μM, 24 h
Experimental: To assess any potential deleterious effects of psoriasin, such as cytotoxicity, a cell viability assay was performed based on luminescence, in which decreased luminescence is indicative of reduced cell viability. Various concentrations of psoriasin ranging from 2-74 μM, were tested on 3T3 cells. Approximately 5000 cells were plated in each well of a 96 well-plate and following overnight incubation, psoriasin was added in the indicated concentration within the medium to the cells (performed in triplicate). Luminescence values were recorded after an additional 24 h using the cell-titer kit (Promega Ltd.) in a BioTek Synergy plate reader.

[2] = test system: microbial load of hummus spread; test: Shelf life of canned hummus spread at natural pH 6.5; assay type: cell-based; conditions: pH 6.5, stored at 6° C in an open container
Experimental: In a further related example, the ability of psoriasin to extend the shelf life of a canned hummus spread preparation was compared with that of nisin, a commonly used preservative at pH 6.5, the natural pH of the preparation. As described above, no antibiotics were added and there was no addition of mold, yeast or bacteria to the hummus spread. The hummus spread was split into 3 groups: i) untreated, ii) nisin-treated, and iii) psoriasin-treated. The hummus spread was stored at 6° C. in an open container. Total CFU count was determined by plating on LB and PDA agar petri dishes.

[3] = test system: microbial load of plant-based ground meat (soy protein); test: Microbial load of plant-based ground meat (soy protein) with psoriasin and/or nisin; assay type: cell-based; conditions: 0.65% w/w His-psoriasin; 1.5 mg nisin; 5 g soy protein in 7.5 ml PBS
Experimental: The ability of psoriasin to inhibit bacterial and fungal growth, with and without nisin was evaluated. Commercial plant-based ground meat (soy protein) was divided into 4 groups, each containing 5 grams of soy protein. The sample designated as “non-treated” contained 5 g of soy protein in 7.5 ml of PBS×1. The sample designated as “psoriasin” contained 5 g of soy protein in 7.5 ml of PBS×1 with 0.65% w/w of His-psoriasin. The sample designated as “nisin” contained 5 g of soy protein in 7.5 ml PBS×1 with 1.5 mg of nisin. The combined treatment group (“psoriasin+nisin”) contained 5 g of soy protein with both his-psoriasin and nisin at the same concentrations. The samples were incubated in […], and the microbial load was evaluated by seeding the different test groups on LB-agarose plates containing no antibiotics or on YAG-agarose plates with the antibiotics.

C. albicans = test: Anti-fungal activity after lyophilization or oven drying; assay type: cell-based, Candida albicans
Experimental: The activity of psoriasin was assessed following lyophilization and oven drying. […] In particular, psoriasin was lyophilized and then tested for antimicrobial activity against C. albicans at concentrations of 0.5, 0.25, and 0.125 μM compared with psoriasin that had not been lyophilized.
In another experiment, psoriasin was oven-dried at 50° C. for 24 hours. Subsequently, psoriasin was tested for antimicrobial activity against C. albicans at concentrations of 0.5, 0.25, 0.125, 0.0625 μM compared with psoriasin that was not dried.

[4] = test system: microbial sample isolated from soy protein; test: Growth of microbes isolated from soy protein in LB or RPMI; assay type: cell-based
Experimental: Psoriasin was applied to a microbial sample isolated from soy protein that was incubated in RPMI or LB medium, with no addition of external antibiotics. Liquid RPMI 1640 (5 ml) medium w/o Pen/strep antibiotics were inoculated with a colony that grew on an LB agarose plate from Example 8. The inoculated medium was incubated in a 37° C. shaker incubator overnight. Only the medium without antibiotics became turbid as a result of the endogenic bacterial growth. The isolated bacteria were used in dose-response experiments in RPMI 1640 and LB. Microbial growth was monitored in a 96-well plate by reading the absorbance at 600 nm every 10 minutes while adjusting the temperature to 37° C. In the rich LB medium, psoriasin was effective at a concentration of 50 μM (FIG. 9A). In RPMI, psoriasin was effective in concentrations below 1 μM (FIG. 9B).

E. coli = test: Thermal stability of psoriasin, E. coli standard growth assay; assay type: cell-based
Experimental: In another study, psoriasin stock (36 mg/mL in 1×PBS) was exposed to temperatures of 70° C., 80° C., and 90° C. for periods of 15, 30, and 60 minutes. After thermal exposure, the activity of the protein was assessed against E. coli in a standard growth assay with 0.4%, 0.2% or 0.1% psoriasin.

[5] = test system: microbial growth in bread/rolls; test: Microbial growth in baked bread/rolls stored at room temperature; assay type: cell-based; conditions: 0.3% psoriasin admixed with dough before baking, after 10 days at room temperature
Experimental: Bread or roll dough prepared with 150 ml PBS, 0.3% psoriasin, (1.5 g protein in 150 ml DDW) or 0.3% calcium propionate (1.5 g calcium propionate in 150 ml DDW) was baked in a bread maker according to the manufacturer protocol using the following recipe: 180 ml water (or 150 ml PBS+30 ml water), 1 teaspoon of salt, 2 spoons of sugar, 2 spoons of oil, 300 g of flour, and 1 teaspoon of yeast. Following baking, the bread was sliced, each slice/roll was weighed and kept in a separate small smasher bag until analysis.
Bread/rolls were stored at room temperature. Each day, a roll/slice of bread from each group was mixed with autoclaved 1×PBS at a weight ratio of 1:10 to the weighted piece of bread in the bag. The bread was then smashed in a smasher at normal speed for 120 seconds. 10 mL from the smashed bread was removed, vortexed, and diluted with autoclaved 1×PBS as necessary. Samples were plated on both PDA and LB plates and incubated at 30° C. and 37° C., respectively. All samples were performed in duplicate.

B1: psoriasin: Recombinant human psoriasin (S100a7) containing a histidine tag, amino acid sequence SEQ ID NO: 11, expression vector pET-28a (protein, listed as Homo sapiens)
chain: MSNTQAERSIIGMIDMFHKYTRRDDKIEKPSLLTMMKENFPNFLSACDKKGTNYLADVFEKKDKNEDKKIDFSEFLSLLGDIATDYHKQSHGAAPCSGGSQ
[1]
  increase of shelf life of plant-based meat substitute: 3 Fold
[1]; Day 1
  Yeast & Mold Count: 2 × 10^2
[1]; Day 1, open package, psoriasin 0.65%
  Total CFU count: 1.2 × 10^4 CFU
[1]; Day 3
  Total CFU count: 1.2 × 10^4 CFU
  Yeast & Mold Count: 2 × 10^2
[1]; Day 5
  Total CFU count: 1.2 × 10^4 CFU
  Yeast & Mold Count: 2 × 10^2
[1]; Day 10
  Total CFU count: 6.65 × 10^5 CFU
  Yeast & Mold Count: 2 × 10^2
[1]; Day 11
  Total CFU count: 6.5 × 10^5 CFU
  Yeast & Mold Count: 2 × 10^2
[1]; Day 16
  Total CFU count: 2.4 × 10^6 CFU
  Yeast & Mold Count: 1 × 10^3
[1]; psoriasin 0.65%
  less microbial load than the other two groups (untreated, nisin): 4 logs
3T3 cells
  cell viability (luminescence): No change in luminescence was detected
[2]
  time without microbial growth in hummus spread: over 32 days
[3]
  total microbial count on LB-agarose plates containing no antibiotics: inhibited microbial growth
  total yeast/mold count on YAG plates with antibiotics: inhibited fungal/yeast growth
C. albicans; 0.5, 0.25 and 0.125 μM
  activity against C. albicans after lyophilization vs not lyophilized: showed the same activity
C. albicans; oven-dried at 50° C for 24 hours, 0.5, 0.25, 0.125, 0.0625 μM
  activity against C. albicans after oven drying vs not dried: showed the same activity
[4]; RPMI 1640, 37° C
  effective concentration against isolated microbes: below 1 μM
[4]; rich LB medium, 37° C
  effective concentration against isolated microbes: 50 µM
E. coli; 70° C for 15, 30 and 60 minutes, all concentrations
  antimicrobial activity against E. coli after thermal exposure: retained full antimicrobial activity
E. coli; 70° C, 80° C, 90° C for 15 minutes, 0.4%, 0.2% or 0.1% psoriasin
  ability to inhibit E. coli after thermal exposure: maintained its ability to inhibit the growth of E. coli
E. coli; 80° C and 90° C for 1 hour
  antimicrobial activity against E. coli after thermal exposure: inhibited the growth of E. coli, though to a lesser extent
[5]
  microbial growth in rolls: no microbial growth was detected
